Patent US20080220446A1, “Method for Detecting and/or Removing Protein and/or Peptide Comprising a Cross-Beta Structure From an Aqueous Solution Comprising a Protein” (priority 2005, published 2008)
pKd: −log10 of the molar value.

Tests used:
[1] = Thioflavin T fluorescence of protein solutions; type: physicochemical
Procedure: Fluorescence of ThT—protein/peptide adducts was measured as follows. […] Fluorescence was measured at 485 nm upon excitation at 435 nm. Background signals from buffer, buffer with ThT and protein/peptide solution without ThT were subtracted from corresponding measurements with protein solution incubated with ThT. Regularly, fluorescence of Aβ was used as a positive control, and fluorescence of FP10, a non-amyloid fibrin fragment^16, was used as a negative control. Fluorescence was measured in triplicate on a Hitachi F-4500 fluorescence spectrophotometer (Ltd., Tokyo, Japan).
(§1) Formulated protein therapeutics were obtained from the local hospital pharmacy and were used as supplied by the manufacturers. […] Lyophilized therapeutics were dissolved according to the manufacturers recommendations. GH, zinc-insulin, Cealb and gelatin were stored at −20, 4, room temperature, 37 and 65° C. Other protein therapeutics were only kept at 4° C., and assayed for the presence of cross-β structure at shown time points. Enhancement in fluorescence of ThT and Congo red was measured with all formulated protein therapeutics. For this purpose, proteins were diluted to the indicated concentrations. […] Zinc-insulin was diluted tenfold in the activation assay, GH was diluted to a final concentration of 500 μg ml^−1. Activation of factor XII and prekallikrein by the therapeutics was tested in the chromogenic factor XII assay (see above). […] After coating, plates were blocked with Blocking Reagent (Roche Diagnostics, Almere, The Netherlands).
ThT fluorescence of β2GPI was measured as follows. […] CL vesicles were prepared according to an established procedure. Briefly, CL was dried under a stream of nitrogen. The lipids were resuspended to a concentration of 10 mg ml^−1 in 25 mM Tris-HCl, pH 7.3, 150 mM NaCl by vigorous agitation, using a vortex. In the ThT fluorescence assay, fluorescence of β2GPI in buffer, of CL or DXS500k in buffer, of buffer and ThT alone, and of β2GPI-CL adducts and β2GPI-DXS500k adducts, with or without ThT, was recorded as described above (section ThT fluorescence). In addition, TEM images were recorded with CL, β2GPI from human plasma, with or without CL, and with recombinant β2GPI, as described^5.
To prepare structurally altered ovalbumin (OVA) with amyloid cross-β structures, purified OVA (Sigma, A-7641, lot 071k7094) was heated to 85° C. One mg ml^−1 OVA in 67 mM NaPi buffer pH 7.0, 100 mM NaCl, was heated for two cycles in PCR cups in a PTC-200 thermal cycler (MJ Research, Inc., Waltham, Mass., USA). In each cycle, OVA was heated from 30 to 85° C. at a rate of 5° C./min. Native OVA (nOVA) and heat-denatured OVA (dOVA) were tested in the ThT fluorescence assay and in the Plg-activation assay. In the fluorescence assay and in the Plg-activation assay, 25 and 100 μg ml^−1 nOVA and dOVA were tested, respectively. TEM images of nOVA and dOVA were taken to check for the presence of large aggregates.
MSA (#126674, Calbiochem) was dissolved in 8 M urea, 100 mM Tris-HCl pH 8.2, at 10 mg ml^−1 final concentration. Dithiothreitol (DTT) was added to a final concentration of 10 mM. Air was replaced by N2 and the solution was incubated for 2 h at room temperature. Then, the solution was transferred to ice and iodoacetamide was added from a 1 M stock to a final concentration of 20 mM. […] In the ThT-fluorescence assay 25 μg ml^−1 nMSA and alkyl-MSA were tested, and in the Plg-activation assay 100 μg ml^−1 was tested. The presence of aggregates or fibrils was analyzed using TEM. […]

tPA [2] = target: T1, tPA (Homo sapiens, UniProt P00750); assay: tPA/plasminogen activation assay; type: biochemical; conditions: % of standardized positive control; 1:10 diluted samples
Procedure: β2-GPI was reduced and alkylated as follows. Sixhundredforty μl of β2-GPI stock was mixed with 640 μl of 8 M Urea (cooled solution) in 0.1 M Tris pH-8.2. The solution was degassed with N2 gas for approximately 6 minutes. From a 1 M DTT stock 12.8 μl was added to the solution, mixed and incubated for 3 hours at room temperature. A 1 M Iodoacetamide (Sigma; I-6125) was prepared, of which 25.6 μl was added to the β2-GPI reaction mixture. The solution was subsequently dialysed against PBS. […] Signals obtained with alkyl-β2gpi are compared with those obtained with native β2gpi starting material and with positive control acid/heat denatured amyloid-like misfolded γ-globulins.
Exiqon Peptide Immobilizer plates were blocked for 1 hour with PBS, 1% Tween20 and rinsed twice with distilled water. The conversion of the chromogenic substrate S-2251 (Chromogenix, Italy) by plasmin was kinetically measured at 37° C. on a Spectramax340 microplate reader at a wavelength of 405 nm. […] Denatured γ-globulins (100 μg/ml) with amyloid-like structure was used as reference and positive control. Lyophilized γ-globulins (Sigma, Mo., USA) were dissolved in a 1(:)1 volume ratio of 1,1,1,3,3,3-hexafluoro-2-propanol and trifluoro-acetic acid and subsequently dried under air. Dried γ-globulins was dissolved in H2O to a final concentration of 1 mg/ml and kept at room temperature for at least three days and subsequently stored at −20° C.
(§2) Protein therapeutics were obtained from the local hospital pharmacy and analyzed within the expiry limits as stated by the manufacturers.

tPA [3] = target: T1, tPA; assay: tPA ELISA with coated protein therapeutics; type: binding; conditions: for binding of tPA: ELISA, stored at the recommended temperature of 4° C.
Procedure: as §1

[4] = Congo red fluorescence enhancement by biopharmaceuticals; type: physicochemical; conditions: +/− SD; five μL of protein therapeutic
Procedure: Background signals from buffer, buffer with Congo red and protein/peptide solution without Congo red were subtracted from corresponding measurements with protein solution incubated with Congo red. Fluorescence was measured in triplicate on a Hitachi F-4500 fluorescence spectrophotometer (Ltd., Tokyo, Japan).
as §2
Fluorescence of Thioflavin T (ThT; Sigma T-3516, St. Louis, Mo., USA) and Congo red (CR; Aldrich Chemical Company Inc., Milwaukee, Wis., USA) was measured on a Hitachi F-4500 spectrophotometer at an excitation wavelength of 435 nm and emission wavelength of 485 nm for ThT and an excitation wavelength of 550 nm and emission wavelength of 595 nm for Congo red. […] Fluorescence was measured in triplicate. Background fluorescence of both protein in buffer and dye-solution were subtracted from the total fluorescence signal. Five μg/mL fibrillar amyloid-β(1-40) E22Q (Peptide Synthesis Facility of the Dutch Cancer Institute NKI, Amsterdam, The Netherlands) was used as a positive control in all fluorescence assays.

T1 sequence (P00750 36-562): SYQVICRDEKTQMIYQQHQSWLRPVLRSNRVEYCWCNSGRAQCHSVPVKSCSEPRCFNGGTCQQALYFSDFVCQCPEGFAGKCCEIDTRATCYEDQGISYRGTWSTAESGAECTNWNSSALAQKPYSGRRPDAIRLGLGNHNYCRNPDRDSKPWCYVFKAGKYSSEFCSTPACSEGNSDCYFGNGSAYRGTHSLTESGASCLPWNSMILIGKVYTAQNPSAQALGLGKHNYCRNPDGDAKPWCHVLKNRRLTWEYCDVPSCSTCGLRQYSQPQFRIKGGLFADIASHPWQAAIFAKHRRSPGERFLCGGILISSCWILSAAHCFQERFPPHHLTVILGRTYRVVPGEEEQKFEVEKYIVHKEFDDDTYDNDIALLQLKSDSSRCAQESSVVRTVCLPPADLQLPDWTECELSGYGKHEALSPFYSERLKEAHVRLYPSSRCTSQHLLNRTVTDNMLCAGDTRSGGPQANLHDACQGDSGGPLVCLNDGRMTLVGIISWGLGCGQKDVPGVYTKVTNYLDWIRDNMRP

| Substance | enhancement of ThT fluorescence ([1]; stored at 4° C.) | tPA activation Max. Activation (tPA [2]) [%] | binding of tPA (tPA [3]) | pKd (tPA [3]; tPA ELISA, immobilized protein, stored at 4° C., read-out: KD of tPA binding) | Fluorescence CR [4] | enhancement of ThT fluorescence ([1]; after storage at 65° C.) |
| --- | --- | --- | --- | --- | --- | --- |
| Somatropin: human growth hormone (Genotropin, Pharmacia) | enhance fluorescence of ThT | 113.95 | binding of tPA was established | 7.14 | 429 +/− 2 a.u. |  |
| Abciximab: abciximab, an inhibitor of blood platelet aggregation (ReoPro, Centocor) |  | 0 | binding of tPA was established |  | 25 +/− 1 a.u. | enhanced ThT fluorescence |
